Sequences and labels used below:
T1: human GIP receptor (human, UniProt P48546 22-466)
T1 construct: whole, on cells; Used as crude membranes of stably transfected CHO cells; also called hGIPR
T1 sequence (looked up): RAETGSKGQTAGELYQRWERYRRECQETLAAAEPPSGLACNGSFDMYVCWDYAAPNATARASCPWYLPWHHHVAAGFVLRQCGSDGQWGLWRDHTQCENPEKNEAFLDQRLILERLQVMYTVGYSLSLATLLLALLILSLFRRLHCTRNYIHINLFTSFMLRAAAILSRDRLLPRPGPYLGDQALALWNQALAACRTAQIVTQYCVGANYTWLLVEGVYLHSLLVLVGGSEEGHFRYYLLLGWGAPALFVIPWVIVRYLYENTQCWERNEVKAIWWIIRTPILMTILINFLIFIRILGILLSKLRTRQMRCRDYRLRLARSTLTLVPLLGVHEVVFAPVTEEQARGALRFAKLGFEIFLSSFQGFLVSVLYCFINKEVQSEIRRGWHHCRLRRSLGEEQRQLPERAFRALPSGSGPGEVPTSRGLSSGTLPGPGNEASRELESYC

B1: Example 88 (peptide)
peptide: YPEGTFTSDYSILLDKK([AEEA-AEEA-γGlu-C20 diacid])AQ[Aib]AFIEYLIEGGPSSGAPPPS-NH2
modifications: N-terminus assumed
SMILES: CC[C@H](C)[C@H](NC(=O)[C@H](CC(C)C)NC(=O)[C@H](Cc1ccc(O)cc1)NC(=O)[C@H](CCC(=O)O)NC(=O)[C@@H](NC(=O)[C@H](Cc1ccccc1)NC(=O)[C@H](C)NC(=O)C(C)(C)NC(=O)[C@H](CCC(N)=O)NC(=O)[C@H](C)NC(=O)[C@H](CCCCNC(=O)COCCOCCNC(=O)COCCOCCNC(=O)CC[C@H](NC(=O)CCCCCCCCCCCCCCCCCCC(=O)O)C(=O)O)NC(=O)[C@H](CCCCN)NC(=O)[C@H](CC(=O)O)NC(=O)[C@H](CC(C)C)NC(=O)[C@H](CC(C)C)NC(=O)[C@@H](NC(=O)[C@H](CO)NC(=O)[C@H](Cc1ccc(O)cc1)NC(=O)[C@H](CC(=O)O)NC(=O)[C@H](CO)NC(=O)[C@@H](NC(=O)[C@H](Cc1ccccc1)NC(=O)[C@@H](NC(=O)CNC(=O)[C@H](CCC(=O)O)NC(=O)[C@@H]1CCCN1C(=O)[C@@H](N)Cc1ccc(O)cc1)[C@@H](C)O)[C@@H](C)O)[C@@H](C)CC)[C@@H](C)CC)C(=O)N[C@@H](CCC(=O)O)C(=O)NCC(=O)NCC(=O)N1CCC[C@H]1C(=O)N[C@@H](CO)C(=O)N[C@@H](CO)C(=O)NCC(=O)N[C@@H](C)C(=O)N1CCC[C@H]1C(=O)N1CCC[C@H]1C(=O)N1CCC[C@H]1C(=O)N[C@@H](CO)C(N)=O
B2: Example 69 (peptide)
peptide: YXEGTXTSDYSIXLDKKAQXAFIEYLIEGGPSSGAPPPS
modifications: Aib2; αMeF6; αMeL13; K17((2-[2-(2-Amino-ethoxy)-ethoxy]-acetyl)2-(γ-Glu)-CO-(CH2)18-CO2H); Aib20; C-terminal NH2
B3: Example 83 (peptide)
peptide: B2 peptide with X6F, X13L, E28X
modifications: Aib2; K17((2-[2-(2-Amino-ethoxy)-ethoxy]-acetyl)2-(γ-Glu)-CO-(CH2)18-CO2H); Aib20; D-Glu28; C-terminal NH2
B4: Example 79 (peptide)
peptide: B2 peptide with Y1X, X2A, X6F, X13L
modifications: N-terminal Ac; D-Tyr1; K17((2-[2-(2-Amino-ethoxy)-ethoxy]-acetyl)2-(γ-Glu)-CO-(CH2)18-CO2H); Aib20; C-terminal NH2
B5: Example 81 (peptide)
peptide: B2 peptide with X6F, S11X, X13L
modifications: Aib2; D-Ser11; K17((2-[2-(2-Amino-ethoxy)-ethoxy]-acetyl)2-(γ-Glu)-CO-(CH2)18-CO2H); Aib20; C-terminal NH2
B6: Example 74 (peptide)
peptide: B2 peptide with X6F, F22X
modifications: Aib2; αMeL13; K17((2-[2-(2-Amino-ethoxy)-ethoxy]-acetyl)2-(γ-Glu)-CO-(CH2)18-CO2H); Aib20; αMeF22; C-terminal NH2
B7: Example 78 (peptide)
peptide: B2 peptide with Y1X, X6F, X13L
modifications: D-Tyr1; Aib2; K17((2-[2-(2-Amino-ethoxy)-ethoxy]-acetyl)2-(γ-Glu)-CO-(CH2)18-CO2H); Aib20; C-terminal NH2
B8: Example 76 (peptide)
peptide: B2 peptide with F22X
modifications: Aib2; αMeF6 (printed aMeF); αMeL13; K17((2-[2-(2-Amino-ethoxy)-ethoxy]-acetyl)2-(γ-Glu)-CO-(CH2)18-CO2H); Aib20; αMeF22; C-terminal NH2
B9: Example 89 (peptide)
peptide: B2 peptide with E3X, X6F, X13L
modifications: Aib2; Aad3; K17((2-[2-(2-Amino-ethoxy)-ethoxy]-acetyl)2-(γ-Glu)-CO-(CH2)18-CO2H); Aib20; C-terminal NH2
B10: Example 75 (peptide)
peptide: B2 peptide with X6F, L26X
modifications: Aib2; αMeL13; K17((2-[2-(2-Amino-ethoxy)-ethoxy]-acetyl)2-(γ-Glu)-CO-(CH2)18-CO2H); Aib20; αMeL26; C-terminal NH2
B11: Example 126 (peptide)
peptide: B2 peptide with G29A
modifications: Aib2; αMeF6; αMeL13; K17((2-[2-(2-Amino-ethoxy)-ethoxy]-acetyl)2-(γ-Glu)-CO-(CH2)18-CO2H); Aib20; C-terminal NH2
B12: Example 163 (peptide)
peptide: B2 peptide with Y1H, K16E, A21E
modifications: Aib2; αMeF(2F)6; αMeL13; K17((2-[2-(2-Amino-ethoxy)-ethoxy]-acetyl)2-(γ-Glu)-CO-(CH2)18-CO2H); Aib20; C-terminal NH2
B13: Example 153 (peptide)
peptide: B2 peptide with K16E, A21E, E24H
modifications: Aib2; αMeF(2F)6; αMeL13; K17((2-[2-(2-Amino-ethoxy)-ethoxy]-acetyl)2-(γ-Glu)-CO-(CH2)18-CO2H); Aib20; C-terminal NH2

Positions count from the first letter of the chain named. Numbered stars: 1 amine (or outer) side, 2 acyl side, 3 side chain; on linkers, the order of the positions; unused ones are H or OH. Square brackets hold non-standard residues; d marks the D form. Side chains are listed from the residue outwards. Ends that are not written are not given here. * marks the point of attachment. C20 diacid = O=C(O)CCCCCCCCCCCCCCCCCCC(=O)*; γGlu = O=C(O)[C@H](CCC(=O)[*:2])N[*:1]; AEEA = NCCOCCOCC(=O)O; Aib = CC(C)(N)C(=O)O

One experiment deals with T2, human glucagon receptor (human, UniProt P47871 26-477).
T2 construct: whole, on cells; Used as crude membranes of stably transfected HEK293 cells; also called hGcgR; hGLcgR
T2 sequence (P47871 26-477): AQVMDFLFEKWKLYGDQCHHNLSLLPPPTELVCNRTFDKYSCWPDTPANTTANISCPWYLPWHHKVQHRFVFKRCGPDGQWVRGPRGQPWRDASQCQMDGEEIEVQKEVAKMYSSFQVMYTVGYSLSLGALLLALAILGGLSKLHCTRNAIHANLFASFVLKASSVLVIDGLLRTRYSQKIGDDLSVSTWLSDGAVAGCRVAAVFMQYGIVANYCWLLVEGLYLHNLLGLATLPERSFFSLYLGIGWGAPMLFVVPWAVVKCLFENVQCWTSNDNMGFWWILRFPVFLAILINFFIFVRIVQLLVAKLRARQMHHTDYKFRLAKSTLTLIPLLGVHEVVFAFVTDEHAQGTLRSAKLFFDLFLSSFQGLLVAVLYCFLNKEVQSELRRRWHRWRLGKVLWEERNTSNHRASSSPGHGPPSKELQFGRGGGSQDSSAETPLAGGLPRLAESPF
In words: SPA, [125I]-Gcg displacement, hGcgR membranes.
B1: affinity was put at a Ki of 545 nM.
B2: the Ki (usually a dissociation constant, usually derived from enzyme kinetics or from competition with a known ligand) is 22.1 nM.
The same measure, in the same setting: for B3 the value was 320 nM; for B4, 429 nM.
The molecule B5 showed a Ki of 344 nM.
B6: the affinity corresponds to a Ki of 69.8 nM.
Molecule B7 gave a Ki of 215 nM.
The same measure, in the same setting: the same measure for B8: 14.4 nM; for B9: 324 nM.
With B10, the affinity corresponds to a Ki of 283 nM.
The same measure, in the same setting: the same measure for B11: 101 nM.
The molecule B12 had a Ki of 117 nM.
Molecule B13 returned a Ki of 43.8 nM.

A further experiment deals with T1, human GIP receptor. In words: SPA, [125I]-GIP displacement, hGIPR membranes.
As to B1, the Ki was 0.0717 nM.
The molecule B2 had a Ki of 0.03 nM.
The molecule B3 displayed a Ki of 0.142 nM.
With B4, the affinity, expressed as Ki, was 0.0313 nM.
For B5, the Ki turned out to be 0.198 nM.
B6 gave a Ki of 0.0279 nM.
Turning to B7, the affinity, expressed as Ki, was 0.163 nM.
Turning to B8, the affinity, expressed as Ki, was 0.0659 nM.
Still for that read-out and setting: the same measure for B9: 0.045 nM.
Regarding B10, the Ki turned out to be 0.103 nM.
The same measure, in the same setting: the same measure for B11: 0.0644 nM; for B12: 0.116 nM; for B13: 0.0578 nM.

The target in another experiment is T3, human GLP-1 receptor (human, UniProt P43220 24-463).
T3 construct: whole, on cells; Used as crude membranes of stably transfected HEK293 cells; also called hGLP1R; hGLP-1R
In words: SPA, [125I]-GLP-1 displacement, hGLP-1R membranes.
As to B1, the affinity corresponds to a Ki of 4.24 nM.
Consider B2, for which affinity was put at a Ki of 1.22 nM.
On the same count and under the same terms, for B3 the value was 7.1 nM; for B4, 2.69 nM.
Still for that read-out and setting: for B5 the value was 2.88 nM.
In turn, B6 had a Ki of 5.99 nM.
Still for that read-out and setting: for B7 the value was 3.94 nM.
Same read-out and setting: for B8 the value was 2.64 nM; for B9, 2.64 nM.
B10 displayed a Ki of 24.4 nM.
The molecule B11 had a Ki of 1.46 nM.
B12 showed a Ki of 10.8 nM.
Take B13: affinity was put at a Ki of 22.2 nM.

For the origin of these results see US20200024322A1 (Eli Lilly, published 2020).
